Patent US11325966

Key:
Assay in all cases: cell-based or functional assay
[1] = target: HIV-1 Env of pseudovirus C4118.c09 (HIV-1)
[2] = target: HIV-1 Env of pseudovirus QH0692.42 (HIV-1)
[3] = target: HIV-1 Env of pseudovirus 928-28 (HIV-1)
[4] = target: HIV-1 Env of pseudovirus TRJO4551.58 (HIV-1)
[5] = target: HIV-1 Env of pseudovirus ZM53M.PB12 (HIV-1)
[6] = target: HIV-1 Env of pseudovirus CNE20 (HIV-1)
[7] = target: HIV-1 Env of pseudovirus 1056_10_TA11_1826 (HIV-1)
[8] = target: HIV-1 Env of pseudovirus R2184.c04 (HIV-1)
[9] = target: HIV-1 Env of pseudovirus BJOX010000.06.2 (HIV-1)
[10] = target: HIV-1 Env of pseudovirus T257-31 (HIV-1)
[11] = target: HIV-1 Env of pseudovirus Ce1172_H1 (HIV-1)
[12] = target: HIV-1 Env of pseudovirus Q842.d12 (HIV-1)
[13] = target: HIV-1 Env of pseudovirus RHPA4259.7 (HIV-1)
[14] = target: HIV-1 Env of pseudovirus Ce2010_F5 (HIV-1)
[15] = target: HIV-1 Env of pseudovirus 6244_13_B5_4576 (HIV-1)
[16] = target: HIV-1 Env of pseudovirus Q769.d22 (HIV-1)
[17] = target: HIV-1 Env of pseudovirus 0815.v3.c3 (HIV-1)
[18] = target: HIV-1 Env of pseudovirus CNE30 (HIV-1)
[19] = target: HIV-1 Env of pseudovirus 3016.v5.c45 (HIV-1)
[20] = target: HIV-1 Env of pseudovirus Ce0682_E4 (HIV-1)
[21] = target: HIV-1 Env of pseudovirus BJOX015000.11.5 (HIV-1)
[22] = target: HIV-1 Env of pseudovirus ZM214M.PL15 (HIV-1)
[23] = target: HIV-1 Env of pseudovirus C1080.c03 (HIV-1)
[24] = target: HIV-1 Env of pseudovirus PVO.4 (HIV-1)
[25] = target: HIV-1 Env of pseudovirus CNE8 (HIV-1)
[26] = target: HIV-1 Env of pseudovirus 231965.c01 (HIV-1)
[27] = target: HIV-1 Env of pseudovirus 6480.v4.c25 (HIV-1)
[28] = target: HIV-1 Env of pseudovirus 3301.v1.c24 (HIV-1)
[29] = target: HIV-1 Env of pseudovirus CAP210.2.00.E8 (HIV-1)
[30] = target: HIV-1 Env of pseudovirus 235-47 (HIV-1)
[31] = target: HIV-1 Env of pseudovirus HIV-001428-2.42 (HIV-1)
[32] = target: HIV-1 Env of pseudovirus HIV-16845-2.22 (HIV-1)
[33] = target: BG505 (T332N) N295A (HIV-1)
92BR020 R327A (HIV-1) = target: 92BR020 R327A (HIV-1)
JR-CSF Q328A (HIV-1) = JR-CSF Q328A (HIV-1) (UniProt P20871)
[34] = target: 92BR020 N136A + N156A + N301A (HIV-1)
[35] = target: 92BR020 N136A + N332A (HIV-1)
92BR020 N156A (HIV-1) = target: 92BR020 N156A (HIV-1)
92BR020 H33OA (HIV-1) = target: 92BR020 H33OA (HIV-1)
JR-CSF N386A (HIV-1) = JR-CSF N386A (HIV-1) (UniProt P20871)
[36] = target: BG505 (T332N) N392A (HIV-1)
92BR020 N136A (HIV-1) = target: 92BR020 N136A (HIV-1)
92BR020 Q328A (HIV-1) = target: 92BR020 Q328A (HIV-1)

BG18 IgG (354BG18) (antibody)
IC50 in TZM-bl assay [1]: > 30 µg/mL
IC80 in TZM-bl assay [1]: > 30 µg/mL
IC50 in TZM-bl assay [2]: 0.013 µg/mL
IC80 in TZM-bl assay [2]: 0.042 µg/mL
IC50 in TZM-bl assay [3]: 0.761 µg/mL
IC80 in TZM-bl assay [3]: 3.93 µg/mL
IC50 in TZM-bl assay [4]: 3.34 µg/mL
IC80 in TZM-bl assay [4]: 26.9 µg/mL
IC50 in TZM-bl assay [5]: > 30 µg/mL
IC80 in TZM-bl assay [5]: > 30 µg/mL
IC50 in TZM-bl assay [6]: 0.002 µg/mL
IC80 in TZM-bl assay [6]: 0.006 µg/mL
IC50 in TZM-bl assay [7]: 0.007 µg/mL
IC80 in TZM-bl assay [7]: 0.045 µg/mL
IC50 in TZM-bl assay [8]: > 30 µg/mL
IC80 in TZM-bl assay [8]: > 30 µg/mL
IC50 in TZM-bl assay [9]: > 30 µg/mL
IC80 in TZM-bl assay [9]: > 30 µg/mL
IC50 in TZM-bl assay [10]: > 30 µg/mL
IC80 in TZM-bl assay [10]: > 30 µg/mL
IC50 in TZM-bl assay [11]: 0.002 µg/mL
IC80 in TZM-bl assay [11]: 0.007 µg/mL
IC50 in TZM-bl assay [12]: 14 µg/mL
IC80 in TZM-bl assay [12]: > 30 µg/mL
IC50 in TZM-bl assay [13]: 1.44 µg/mL
IC80 in TZM-bl assay [13]: > 30 µg/mL
IC50 in TZM-bl assay [14]: > 30 µg/mL
IC80 in TZM-bl assay [14]: > 30 µg/mL
IC50 in TZM-bl assay [15]: 0.011 µg/mL
IC80 in TZM-bl assay [15]: 0.049 µg/mL
IC50 in TZM-bl assay [16]: > 30 µg/mL
IC80 in TZM-bl assay [16]: > 30 µg/mL
IC50 in TZM-bl assay [17]: 0.16 µg/mL
IC80 in TZM-bl assay [17]: 5.96 µg/mL
IC50 in TZM-bl assay [18]: 0.019 µg/mL
IC80 in TZM-bl assay [18]: 0.059 µg/mL
IC50 in TZM-bl assay [19]: > 30 µg/mL
IC80 in TZM-bl assay [19]: > 30 µg/mL
IC50 in TZM-bl assay [20]: > 30 µg/mL
IC80 in TZM-bl assay [20]: > 30 µg/mL
IC50 in TZM-bl assay [21]: > 30 µg/mL
IC80 in TZM-bl assay [21]: > 30 µg/mL
IC50 in TZM-bl assay [22]: > 30 µg/mL
IC80 in TZM-bl assay [22]: > 30 µg/mL
IC50 in TZM-bl assay [23]: 5.37 µg/mL
IC80 in TZM-bl assay [23]: > 30 µg/mL
IC50 in TZM-bl assay [24]: 0.003 µg/mL
IC80 in TZM-bl assay [24]: 0.013 µg/mL
IC50 in TZM-bl assay [25]: > 30 µg/mL
IC80 in TZM-bl assay [25]: > 30 µg/mL
IC50 in TZM-bl assay [26]: > 30 µg/mL
IC80 in TZM-bl assay [26]: > 30 µg/mL
IC50 in TZM-bl assay [27]: 0.016 µg/mL
IC80 in TZM-bl assay [27]: 0.116 µg/mL
IC50 in TZM-bl assay [28]: 0.025 µg/mL
IC80 in TZM-bl assay [28]: 0.082 µg/mL
IC50 in TZM-bl assay [29]: 3.47 µg/mL
IC80 in TZM-bl assay [29]: 10.7 µg/mL
IC50 in TZM-bl assay [30]: 0.005 µg/mL
IC80 in TZM-bl assay [30]: 0.017 µg/mL
IC50 in TZM-bl assay [31]: 0.004 µg/mL
IC80 in TZM-bl assay [31]: 0.021 µg/mL
IC50 in TZM-bl assay [32]: 0.019 µg/mL
IC80 in TZM-bl assay [32]: 0.09 µg/mL

354BG8 (antibody)
IC50 in TZM-bl assay [33]: 0.009 µg/mL
IC50 in TZM-bl assay [1]: > 10 µg/mL
IC80 in TZM-bl assay [1]: > 10 µg/mL
IC50 in TZM-bl assay [2]: 0.106 µg/mL
IC80 in TZM-bl assay [2]: 0.383 µg/mL
IC50 in TZM-bl assay (92BR020 R327A (HIV-1)): 0.011 µg/mL
IC50 in TZM-bl assay [3]: 0.616 µg/mL
IC80 in TZM-bl assay [3]: 2.4 µg/mL
IC50 in TZM-bl assay [4]: 0.057 µg/mL
IC80 in TZM-bl assay [4]: 0.218 µg/mL
IC50 in TZM-bl assay [5]: > 10 µg/mL
IC80 in TZM-bl assay [5]: > 10 µg/mL
IC50 in TZM-bl assay (JR-CSF Q328A (HIV-1)): 0.023 µg/mL
IC50 in TZM-bl assay [6]: 0.002 µg/mL
IC80 in TZM-bl assay [6]: 0.005 µg/mL
IC50 in TZM-bl assay [7]: 0.038 µg/mL
IC80 in TZM-bl assay [7]: 0.168 µg/mL
IC50 in TZM-bl assay [34]: 0.001 µg/mL
IC50 in TZM-bl assay [8]: > 10 µg/mL
IC80 in TZM-bl assay [8]: > 10 µg/mL
IC50 in TZM-bl assay [35]: > 50 µg/mL
IC50 in TZM-bl assay [9]: > 10 µg/mL
IC80 in TZM-bl assay [9]: > 10 µg/mL
IC50 in TZM-bl assay (92BR020 N156A (HIV-1)): 0.011 µg/mL
IC50 in TZM-bl assay [10]: > 10 µg/mL
IC80 in TZM-bl assay [10]: > 10 µg/mL
IC50 in TZM-bl assay [11]: 0.019 µg/mL
IC80 in TZM-bl assay [11]: 0.083 µg/mL
IC50 in TZM-bl assay [12]: > 10 µg/mL
IC80 in TZM-bl assay [12]: > 10 µg/mL
IC50 in TZM-bl assay [13]: 0.023 µg/mL
IC80 in TZM-bl assay [13]: 0.083 µg/mL
IC50 in TZM-bl assay [14]: > 10 µg/mL
IC80 in TZM-bl assay [14]: > 10 µg/mL
IC50 in TZM-bl assay [15]: 0.091 µg/mL
IC80 in TZM-bl assay [15]: 0.38 µg/mL
IC50 in TZM-bl assay [16]: > 10 µg/mL
IC80 in TZM-bl assay [16]: > 10 µg/mL
IC50 in TZM-bl assay [17]: 0.043 µg/mL
IC80 in TZM-bl assay [17]: 0.197 µg/mL
IC50 in TZM-bl assay [18]: 0.261 µg/mL
IC80 in TZM-bl assay [18]: 0.678 µg/mL
IC50 in TZM-bl assay [19]: > 10 µg/mL
IC80 in TZM-bl assay [19]: > 10 µg/mL
IC50 in TZM-bl assay [20]: > 10 µg/mL
IC80 in TZM-bl assay [20]: > 10 µg/mL
IC50 in TZM-bl assay [21]: > 10 µg/mL
IC80 in TZM-bl assay [21]: > 10 µg/mL
IC50 in TZM-bl assay [22]: 0.415 µg/mL
IC80 in TZM-bl assay [22]: 2.97 µg/mL
IC50 in TZM-bl assay [23]: > 10 µg/mL
IC80 in TZM-bl assay [23]: > 10 µg/mL
IC50 in TZM-bl assay [24]: 0.072 µg/mL
IC80 in TZM-bl assay [24]: 0.252 µg/mL
IC50 in TZM-bl assay (92BR020 H33OA (HIV-1)): 0.018 µg/mL
IC50 in TZM-bl assay [25]: > 10 µg/mL
IC80 in TZM-bl assay [25]: > 10 µg/mL
IC50 in TZM-bl assay (JR-CSF N386A (HIV-1)): 0.012 µg/mL
IC50 in TZM-bl assay [26]: > 10 µg/mL
IC80 in TZM-bl assay [26]: > 10 µg/mL
IC50 in TZM-bl assay [27]: 0.006 µg/mL
IC80 in TZM-bl assay [27]: 0.023 µg/mL
IC50 in TZM-bl assay [28]: 0.018 µg/mL
IC80 in TZM-bl assay [28]: 0.049 µg/mL
IC50 in TZM-bl assay [36]: 0.005 µg/mL
IC50 in TZM-bl assay [29]: > 10 µg/mL
IC80 in TZM-bl assay [29]: > 10 µg/mL
IC50 in TZM-bl assay [30]: 0.058 µg/mL
IC80 in TZM-bl assay [30]: 0.224 µg/mL
IC50 in TZM-bl assay (92BR020 N136A (HIV-1)): 0.005 µg/mL
IC50 in TZM-bl assay [31]: 0.035 µg/mL
IC80 in TZM-bl assay [31]: 0.126 µg/mL
IC50 in TZM-bl assay (92BR020 Q328A (HIV-1)): 0.018 µg/mL
IC50 in TZM-bl assay [32]: 0.727 µg/mL
IC80 in TZM-bl assay [32]: 3.93 µg/mL
